Experimental data: patent publication JP2022109630A

Tests used:
Experiment in all cases: ELISA, immobilised recombinant L7/L12 (10 ng/mL), antibody 10 ug/mL
[1] = target: レジオネラ・ニューモフィラ(LP)のリボソームタンパク質L7/L12 (レジオネラ・ニューモフィラ (Legionella pneumophila))
[2] = target: カンピロバクター・ジェジュニ(CJ)のリボソームタンパク質L7/L12 (カンピロバクター・ジェジュニ (Campylobacter jejuni))
[3] = target: 髄膜炎菌(NM)のリボソームタンパク質L7/L12 (髄膜炎菌 (Neisseria meningitidis))
[4] = target: 百日咳菌(BP)のリボソームタンパク質L7/L12 (百日咳菌 (Bordetella pertussis))
[5] = target: 溶連菌(SPY)のリボソームタンパク質L7/L12 (溶連菌 (Streptococcus pyogenes))
[6] = target: サルモネラ菌(SE)のリボソームタンパク質L7/L12 (サルモネラ菌 (Salmonella enteritidis))
[7] = target: クレブシエラ・ニューモニエ(KP)のリボソームタンパク質L7/L12 (クレブシエラ・ニューモニエ (Klebsiella pneumoniae))
[8] = target: 肺炎マイコプラズマ(MP)のリボソームタンパク質L7/L12 (肺炎マイコプラズマ (Mycoplasma pneumoniae))
[9] = target: モラキセラ菌(MC)のリボソームタンパク質L7/L12 (モラキセラ菌 (Moraxella catarrhalis))
[10] = target: 緑膿菌(PA)のリボソームタンパク質L7/L12 (緑膿菌 (Pseudomonas aeruginosa))
[11] = target: 肺炎クラミジア(CP)のリボソームタンパク質L7/L12 (肺炎クラミジア (Chlamydia pneumoniae))
[12] = target: クラミジア・トラコマチス(CT)のリボソームタンパク質L7/L12 (クラミジア・トラコマチス (Chlamydia trachomatis))
[13] = target: 黄色ブドウ球菌(SA)のリボソームタンパク質L7/L12 (黄色ブドウ球菌 (Staphylococcus aureus))
[14] = target: リステリア・モノサイトゲネス(LM)のリボソームタンパク質L7/L12 (リステリア・モノサイトゲネス (Listeria monocytogenes))
[15] = target: 肺炎球菌(SP)のリボソームタンパク質L7/L12 (肺炎球菌 (Streptococcus pneumoniae))
[16] = target: 淋菌(NG)のリボソームタンパク質L7/L12 (淋菌 (Neisseria gonorrhoeae))

Measured: absorbance at 450 nm (absorbance (450 nm))

B1: 汎用性抗体B(LP54A3) (antibody, V domains shown)
VH: EVQLQQSGAELVKPGASVRLSCSASGFNIKDTYMHWMRQRPEQGLEWIGRIDPANGNAKYDPKFQVKATITADTSSNTASLQFSSLTSEDTAVYFCASESLDDMYYFDYWGQGTTLTVSS
VL: DIVMTQSQKFMSTSVGDRVSVTCKASQNVGVNVAWYQQKPGQSPKALIYSASYRYSGVPDRFTGSGSGTDFTLTISNVQSEDLAEYFCQQYHSYLYTFGGGTKLEIK
> 0.3: all assays above

B2: 汎用性抗体C(CP141A190.1) (antibody, V domains shown)
VH: QVQLQQPGAELVKPGASVKLSCKTSGYNFTSNWIHWVKQRPGQGLEWIGEINPSNGRANYNEKFKNKATLTVDKSSSTAFMHLSSLTSEDSAVYFCSRGDFDEGFTYWGQGTLVTVSA
VL: QIVLTQSPAIMSASLGERVTMTCTASSNVNSDYLHWYQQKPGSSPRLWIYTTSNLASGVPTRFSGNGSGTSYSLTISSMEAEDAATYYCHQYHRSPRTFGGGTKLEIK
> 0.3: [1]

B3: 汎用性抗体A(PA51B2) (antibody, V domains shown)
VH: QVQLQQPGSVLVRPGASVKLSCKPSGYTFTGSWMHWTKQRPGQGLEWIGEIHPYSGNTNYNEKFRVKATLTVDTSSSTTYVDLSSLTSDDSAVYYCASGDFDAGFTYWGQGTLVTVSA
VL: DIVLTQSPASLAVSLGRRATISCKASQSVDYDGDSYMNWYQQKPGQPPKLLIYVASNLESGIPARFSGSGSGTDFTLNIHPVEEEDAATYYCQQTNEDPFTFGAGTKLELK
> 0.3: [1]
